For assay [1], the target named is T1, mouse ENTPD2 expressed on cells (mouse, UniProt O55026 1-495).
T1 construct: also called NIH3T3-mouse ENTPD2 engineered cell line; mouse ENTPD2-engineered 4T1 clone 45
T1 sequence: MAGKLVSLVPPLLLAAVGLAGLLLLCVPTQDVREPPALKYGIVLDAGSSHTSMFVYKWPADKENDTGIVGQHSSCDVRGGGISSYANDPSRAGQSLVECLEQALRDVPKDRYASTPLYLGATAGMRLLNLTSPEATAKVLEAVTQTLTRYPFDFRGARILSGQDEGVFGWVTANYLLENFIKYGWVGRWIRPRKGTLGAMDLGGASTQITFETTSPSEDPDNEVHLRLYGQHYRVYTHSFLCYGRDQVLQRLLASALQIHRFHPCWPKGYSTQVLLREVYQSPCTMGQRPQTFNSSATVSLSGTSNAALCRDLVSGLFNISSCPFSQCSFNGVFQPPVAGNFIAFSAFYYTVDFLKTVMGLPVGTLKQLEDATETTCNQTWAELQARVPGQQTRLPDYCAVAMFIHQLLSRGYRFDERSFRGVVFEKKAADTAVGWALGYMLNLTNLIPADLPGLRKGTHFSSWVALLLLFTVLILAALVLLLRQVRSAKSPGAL
Nature of the assay: flow cytometry (FACS).

The target in assay [2] is T1, mouse ENTPD2 expressed on cells. As to the kind of experiment: cell-based or functional assay.
For assay [3], the target named is T2, recombinant murine ENTPD2 (residues 29-462) used in crystallography studies (mouse, UniProt O55026 29-462, N-linked glycosylation observed at Asn129 and Asn378).
T2 construct: also called murine ENTPD2 ectodomain; mENTPD2
T2 sequence: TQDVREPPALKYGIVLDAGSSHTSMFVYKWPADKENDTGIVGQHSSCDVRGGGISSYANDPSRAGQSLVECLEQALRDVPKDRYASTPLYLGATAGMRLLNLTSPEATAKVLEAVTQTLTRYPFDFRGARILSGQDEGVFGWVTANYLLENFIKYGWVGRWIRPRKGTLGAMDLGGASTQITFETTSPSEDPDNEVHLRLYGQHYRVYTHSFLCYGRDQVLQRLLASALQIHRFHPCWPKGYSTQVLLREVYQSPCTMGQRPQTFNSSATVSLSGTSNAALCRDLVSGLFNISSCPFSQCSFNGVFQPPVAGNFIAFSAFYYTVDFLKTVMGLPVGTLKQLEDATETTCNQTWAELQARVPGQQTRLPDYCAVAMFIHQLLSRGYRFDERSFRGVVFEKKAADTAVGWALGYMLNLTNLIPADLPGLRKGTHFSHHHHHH
Nature of the assay: X-ray crystal structure of the complex. The method, then: Structure determination by molecular replacement was performed using the previously determined human ENTPD2 coordinates and Fab coordinates from PDB code 3QRG.

The values below come from patent publication US20220348651A1 (Novartis, published 2022).

One may read the EC50 as the concentration at which the effect is half-maximal. A low value points to a more potent agent.

B1: ANTI-mouse ENTPD2 MAB13 (antibody, mouse IgG2a, kappa, V domains shown)
VH: QVQLVQSGAELKQPGQSVKISCKASGYTFTHYGMNWVKQAPGQGLKWMGWINTDTGNPTYADDFKGRFVFSLDTSVSTAYLQISNLKNEDTATYYCVRYGTLYSGYGFFFDSWGQGTLVTVSS
VL: DIMMTQSPSSLSVSAGEKATITCKSSQSLFNSNTNKNYLNWYLQKPGQSPKLLFYYASTRHTGVPDRFIGSGSGTDFTLTITSVQDEDLADYYCQQWYSYPWTFGPGTKLEIKR
notes: mouse ENTPD2 selective antibody; also called Anti-ENTPD2 mAb13
The molecule B1 had an EC50 in assay [1] of 3 to 4 nM. Further, in assay [2], the “ENTPD2 Functional Assay IC50 (mouse ENTPD2 NIH/3T3 cells)” value turned out to be 2.8 nM.

B2: ANTI-mouse ENTPD2 FAB24 (Fab, V domains shown)
VH: QVQLVQSGAELKQPGQSVKISCKASGYTFTHYGMNWVKQAPGQGLKWMGWINTDTGNPTYADDFKGRFVFSLDTSVSTAYLQISNLKNEDTATYYCVRYGTLYSGYGFFFDSWGQGTLVTVSS
VL: DIMMTQSPSSLSVSAGEKATITCKSSQSLFNSNTNKNYLNWYLQKPGQSPKLLFYYASTRHTGVPDRFIGSGSGTDFTLTITSVQDEDLADYYCQQWYSYPWTFGPGTKLEIKR
modifications: N-terminal residue observed and modeled as pyroglutamate in the crystal structure
notes: Fab with the variable regions of mAb13; human CH1 and kappa constant regions; also called anti-murine ENTPD2 Fab MAB13
Take B2: the buried solvent-accessible surface in assay [3] is about 16300 Å2.
